In patent publication US11266762B2, “Methods and kits for producing a fibrin matrix” (Kuros Biosurgery AG, priority 2018, dated 2022):
Several values for one entry are separate records, joined by “and”; a condition that tells them apart may be missing. Equal entries are not always repeated.

How the values were obtained:
[1] = biological target: T1, fibrin matrix (Homo sapiens, UniProt P02671+P02675+P02679); test: Retention assay: covalent binding of TGplPTH1-34 to fibrin matrix (unbound peptide extracted, PTH1-34 ELISA); details: for % unbound TGplPTH1-34 in fibrin matrix: 1 mg/ml final; for Average % unbound ± SD: both experiments
T1 construct: thrombin on one hand cleaves fibrinogen leading to fibrin polymers; purchased Baxter Healthcare AG (ARTISS®)
T1 sequence (P02671 36-866 limits assumed): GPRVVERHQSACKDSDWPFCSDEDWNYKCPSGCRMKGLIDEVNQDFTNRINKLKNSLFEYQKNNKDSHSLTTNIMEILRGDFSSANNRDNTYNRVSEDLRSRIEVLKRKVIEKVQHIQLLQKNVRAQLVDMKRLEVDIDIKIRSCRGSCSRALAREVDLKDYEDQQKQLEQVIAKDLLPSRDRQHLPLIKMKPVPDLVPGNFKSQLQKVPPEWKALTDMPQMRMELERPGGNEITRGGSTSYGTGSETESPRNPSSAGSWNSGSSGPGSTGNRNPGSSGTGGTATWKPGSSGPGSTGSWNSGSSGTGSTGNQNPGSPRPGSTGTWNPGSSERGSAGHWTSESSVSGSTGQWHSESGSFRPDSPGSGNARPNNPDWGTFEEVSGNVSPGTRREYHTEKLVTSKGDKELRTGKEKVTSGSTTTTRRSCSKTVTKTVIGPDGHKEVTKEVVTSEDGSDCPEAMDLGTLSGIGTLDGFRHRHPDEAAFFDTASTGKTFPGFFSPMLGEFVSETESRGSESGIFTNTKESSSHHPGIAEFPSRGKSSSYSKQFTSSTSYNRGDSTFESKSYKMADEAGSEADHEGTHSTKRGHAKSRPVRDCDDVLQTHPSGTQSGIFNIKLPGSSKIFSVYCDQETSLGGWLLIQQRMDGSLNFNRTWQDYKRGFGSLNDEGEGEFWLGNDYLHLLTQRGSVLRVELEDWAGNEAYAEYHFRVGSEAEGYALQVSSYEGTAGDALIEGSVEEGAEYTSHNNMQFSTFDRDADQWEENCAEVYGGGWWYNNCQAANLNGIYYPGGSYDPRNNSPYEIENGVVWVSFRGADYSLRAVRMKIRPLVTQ
T1 sequence (P02675 45-491 limits assumed): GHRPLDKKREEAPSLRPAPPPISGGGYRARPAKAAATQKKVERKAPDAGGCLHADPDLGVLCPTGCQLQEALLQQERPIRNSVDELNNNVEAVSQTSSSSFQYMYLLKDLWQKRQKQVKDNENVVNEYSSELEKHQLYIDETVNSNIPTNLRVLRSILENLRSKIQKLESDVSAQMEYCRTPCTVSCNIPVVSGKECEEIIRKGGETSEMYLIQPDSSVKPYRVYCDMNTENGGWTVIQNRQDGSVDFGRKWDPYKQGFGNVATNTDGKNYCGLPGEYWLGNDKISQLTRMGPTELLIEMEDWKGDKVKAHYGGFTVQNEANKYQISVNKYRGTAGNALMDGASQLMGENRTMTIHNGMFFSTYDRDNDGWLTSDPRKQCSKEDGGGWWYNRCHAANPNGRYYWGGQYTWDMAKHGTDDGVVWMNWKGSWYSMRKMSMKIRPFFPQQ
T1 sequence (P02679 27-433 limits assumed): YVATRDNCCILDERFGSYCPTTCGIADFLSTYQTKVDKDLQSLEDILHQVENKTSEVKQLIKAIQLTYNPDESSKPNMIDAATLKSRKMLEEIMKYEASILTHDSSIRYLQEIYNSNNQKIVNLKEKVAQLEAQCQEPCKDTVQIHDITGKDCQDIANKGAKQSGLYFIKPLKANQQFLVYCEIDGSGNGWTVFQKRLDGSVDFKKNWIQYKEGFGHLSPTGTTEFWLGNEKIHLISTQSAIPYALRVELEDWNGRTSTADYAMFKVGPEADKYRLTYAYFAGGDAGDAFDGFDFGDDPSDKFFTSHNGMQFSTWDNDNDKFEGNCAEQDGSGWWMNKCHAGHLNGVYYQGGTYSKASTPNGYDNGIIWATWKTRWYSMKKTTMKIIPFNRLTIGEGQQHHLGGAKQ
Experimental: The percentage of covalent TGplPTH1-34 binding to fibrin matrices was determined in fibrin matrices prepared with two different methods using an indirect assay. With this assay, non-covalently bound TGplPTH1-34 that can be washed out of the matrix is determined. In the first method (pre-mixing), the two components of the fibrin sealant, ARTISS® were thawed and TGplPTH1-34 was premixed with the fibrinogen component at a concentration of 2 mg/ml. Immediately after mixing, the two components of the fibrin sealant were frozen again and stored at −20° C. The samples were then thawed, and the two components of the sealant were mixed. The final concentration of TGplPTH1-34 in mixed fibrin sealant was 1 mg/ml.
In the second method, the two fibrin sealant components were directly mixed with TGplPTH1-34 solubilized in water to achieve a final concentration of 1 mg/ml (see FIG. 1A).
To evaluate the amount of TGplPTH1-34 covalently bound to the fibrin matrix with the two methods, samples prepared by either of the two methods were subjected to a retention assay. Aliquots of 50 μl were added to 1.5 ml Eppendorf tubes. The fibrin matrices were then incubated at 37° C. for 1 hour. Unbound TGplPTH1-34 was extracted from the fibrin matrix by addition of 1.5 ml extraction buffer (50 mM Tris pH 9.4, 1M NaCl, 0.1% Tween 20) supplemented with protease Inhibitors (Roche Cat #11836153001 cOmplete™, Mini Protease Inhibitor Co) and incubated under constant shaking. After 3 hours the supernatant was collected and 1.5 ml of fresh extraction buffer was added to the fibrin matrix. This extraction step was repeated after 6, 24, 30 and 48 h. Collected supernatants were stored at −20° C. until further processing.
To determine the amount of unbound TGplPTH1-34, the 5 collected supernatants were thawed and pooled. TGplPTH1-34 in the pool was determined by ELISA with a commercial PTH1-34 ELISA kit (Immutopics, Cat *60-3900) following the manufacturer's recommendation. Two independent experiments (three samples per fibrin matrix and experiment) were performed with both preparation methods and the amount of TGplPTH1-34 not bound to the fibrin matrix was determined.

[2] = system: fibrinogen solution; test: Stability of TGplPTH1-34 over time in fibrinogen solution stored at room temperature (HPLC-UV); format: physicochemical; details: for TGplPTH1-34 content Mean ± SD / % loss of TGplPTH1-34: in fibrinogen solution; for TGplPTH1-34 content Mean ± SD: room temperature (20-25° C.); for % loss of TGplPTH1-34: room temperature
Experimental: In order to evaluate the stability of TGplPTH1-34 in the fibrinogen component over time, TGplPTH1-34 was mixed with a fibrinogen solution and stored at room temperature.
TGplPTH1-34 was added to fibrinogen solution at a concentration of 266 μg/ml and incubated at room temperature for up to 34 days. Samples were taken at indicated time points and TGplPTH1-34 concentration was determined by HPLC. Briefly, TGplPTH1-34 was quantified with a HPLC-UV method using a Zorbax Agilent RP18 column (4.6×150 mmm, 5 μm, 300 A) for the separation of related substances. As eluent A: 0.1% TFA, 1% ACN in water and as eluent B: 0.1% TFA in ACN was used. The gradient was 0 min. 26% B; 15 min 38% B; 18 min. 90% B; 22 min 26% B; 24 min 26% B. The injection volume was 20 μl and the flow rate was 1 ml/min. The column temperature was 35° C. A reference standard was used for the calibration curve.
The results from the TGplPTH1-34 stability analysis in fibrinogen stored at room temperature (20-25° C.) for up to 34 days are shown in Table 2.

- % unbound TGplPTH1-34 in fibrin matrix ([1]; First method (pre-mixing with fibrinogen component, refrozen), Experiment 1, samples 1-3): 16.8% and 14.4% and 13.9%
- % unbound TGplPTH1-34 in fibrin matrix ([1]; First method (pre-mixing with fibrinogen component, refrozen), Experiment 2, samples 1-3): 14.7% and 10.2% and 15.1%
- Average % unbound ± SD ([1]; First method (pre-mixing)): 14.2 ± 2.2%
- Average % unbound ± SD ([1]; Second method (direct mixing)): 14.0 ± 1.4%
- % unbound TGplPTH1-34 in fibrin matrix ([1]; Second method (sealant components directly mixed with TGplPTH1-34 in water), Experiment 1, samples 1-3): 13.9% and 11.3% and 15.4%
- % unbound TGplPTH1-34 in fibrin matrix ([1]; Second method (sealant components directly mixed with TGplPTH1-34 in water), Experiment 2, samples 1-3): 14.4% and 14.7%
Substance: TGplPTH1-34: PTH fusion peptide: TG substrate domain, plasmin cleavage site, PTH1-34; NQEQVSPLYKNRSVSEIQLMHNLGKHLNSMERVEWLRKKLQDVHNF (Synthetic fusion protein)
- % of the product degraded ([2]; 3-5 days in fibrinogen solution at room temperature (time frame for manufacturing)): 4.3-7.8%
- TGplPTH1-34 content Mean ± SD ([2]; day 0, added at 266 μg/ml): 232 ± 0.99 µg/mL
- % loss of TGplPTH1-34 ([2]; day 3): −4.3%
- TGplPTH1-34 content Mean ± SD ([2]; day 3): 222 ± 0.80 µg/mL
- % loss of TGplPTH1-34 ([2]; day 5): −7.8%
- TGplPTH1-34 content Mean ± SD ([2]; day 5): 214 ± 1.48 µg/mL
- % loss of TGplPTH1-34 ([2]; day 7): −10.3%
- TGplPTH1-34 content Mean ± SD ([2]; day 7): 208 ± 1.76 µg/mL
- % loss of TGplPTH1-34 ([2]; day 14): −17.2%
- TGplPTH1-34 content Mean ± SD ([2]; day 14): 192 ± 2.28 µg/mL
- % loss of TGplPTH1-34 ([2]; day 21): −24.1%
- TGplPTH1-34 content Mean ± SD ([2]; day 21): 176 ± 1.57 µg/mL
- % loss of TGplPTH1-34 ([2]; day 29): −25.9%
- TGplPTH1-34 content Mean ± SD ([2]; day 29): 172 ± 2.51 µg/mL
- % loss of TGplPTH1-34 ([2]; day 34): −28.0%
- TGplPTH1-34 content Mean ± SD ([2]; day 34): 167 ± 1.2 µg/mL
- degradation of the fusion peptide in fibrinogen solution ([2]; exposure for more than 5 days at room temperature): substantial degradation
